These results are taken from patent publication US20150374663A1.

Test [1] addresses type V tartrate-resistant acid phosphatase (TRAP) protein, immobilised on CM5 sensor chip. The experiment in a line: SPR, TRAP-functionalized surface, binding curve fit (n = 2, Ave. ± StDev). A general note: Surface plasmon resonance follows binding to a sensor surface in real time, without labels.
Test [2] shares this target. Briefly: SPR, TRAP-functionalized surface; lower end of the range told of the peptide-functionalized polymers, tied to the 20% polymer through Table 1.
Test [3] shares this target. Briefly: SPR, TRAP amine-coupled to CM5 chip, initial rate analysis of sensorgrams.
Test [4] shares this target. The experiment in a line: SPR, TRAP-functionalized surface; upper end of the range told of the peptide-functionalized polymers, tied to the 5% polymer through Table 1.

Usually Kd stands for the constant that tells how readily two partners part at equilibrium. Low values mean higher affinity, high ones lower affinity.

Ends that are not written are not given here.

B1: 20% peptide monomer TBP-functionalized PEG polymer of Table 1 (Mn 26700 Da, 17.1% peptide incorporated) (peptide)
peptide: TPLSYLKGLVTVG-OH
modifications: not fully specified (N-terminus); also: RAFT random copolymer with PEG monomethyl ether methacrylate
As to B1, the Kd was 7.5 µM in test [1] and 7.1 to 21 µM in test [2].

B2: 10% peptide monomer TBP-functionalized PEG polymer of Table 1 (Mn 69000 Da, 7.5% peptide incorporated) (peptide)
peptide: TPLSYLKGLVTVG-OH
modifications: not fully specified (N-terminus); also: RAFT random copolymer with PEG monomethyl ether methacrylate
As to B2, the Kd in test [1] was 12.7 µM. In other words, the double-digit micromolar range.

B3: 5% TBP-functionalized PEG polymer of Table 4, M:CTA:I 250:1:0.1, Mn 42.3 kDa (peptide)
peptide: TPLSYLKGLVTVG-OH
modifications: not fully specified (N-terminus); also: RAFT copolymer with PEG methyl ether methacrylate (300 Da), about 5 peptides per chain
On to B3, for which, in test [3], the dissociation constant Kd stood at 80 µM.

B4: 20% TBP-functionalized PEG polymer of Table 4, M:CTA:I 500:1:0.1, Mn 32.7 kDa (peptide)
peptide: TPLSYLKGLVTVG-OH
modifications: not fully specified (N-terminus); also: RAFT copolymer with PEG methyl ether methacrylate (300 Da), about 12 peptides per chain
In turn, B4 had a Kd in test [3] of 70 µM.

B5: 5% TBP-functionalized PEG polymer of Table 4, M:CTA:I 600:1:0.1, Mn 98.2 kDa (peptide)
peptide: TPLSYLKGLVTVG-OH
modifications: not fully specified (N-terminus); also: RAFT copolymer with PEG methyl ether methacrylate (300 Da), about 11 peptides per chain
On to B5, for which the Kd in test [3] is 140 µM.

B6: 5% peptide monomer TBP-functionalized PEG polymer of Table 1 (Mn 103900 Da, 3.9% peptide incorporated) (peptide)
peptide: TPLSYLKGLVTVG-OH
modifications: not fully specified (N-terminus); also: RAFT random copolymer with PEG monomethyl ether methacrylate
B6: the figures for the Kd in test [4] and in test [1] were 7.1 to 21 µM and 21.7 µM, respectively.

B7: 5% TBP-functionalized PEG polymer of Table 4, M:CTA:I 125:1:0.1, Mn 17.1 kDa (peptide)
peptide: TPLSYLKGLVTVG-OH
modifications: not fully specified (N-terminus); also: RAFT copolymer with PEG methyl ether methacrylate (300 Da), about 3 peptides per chain
In the case of B7, the Kd in test [3] worked out at 70 µM.
